The text below walks through data of paper PMC5435919 (Nucleic Acids Research, 2017).

The series “SEC-MALS” deals with the molecule itself. Nature of the series: SEC-MALS. In general terms: SEC sorts molecules by how far they enter the pores of the column.
The series “atomic force microscopy” concerns the molecule itself. The series can be described thus: atomic force microscopy.
For another series, the target named is T1, DmGen (1-518)-His (Drosophila melanogaster, UniProt Q9VRJ0 1-518).
T1 sequence: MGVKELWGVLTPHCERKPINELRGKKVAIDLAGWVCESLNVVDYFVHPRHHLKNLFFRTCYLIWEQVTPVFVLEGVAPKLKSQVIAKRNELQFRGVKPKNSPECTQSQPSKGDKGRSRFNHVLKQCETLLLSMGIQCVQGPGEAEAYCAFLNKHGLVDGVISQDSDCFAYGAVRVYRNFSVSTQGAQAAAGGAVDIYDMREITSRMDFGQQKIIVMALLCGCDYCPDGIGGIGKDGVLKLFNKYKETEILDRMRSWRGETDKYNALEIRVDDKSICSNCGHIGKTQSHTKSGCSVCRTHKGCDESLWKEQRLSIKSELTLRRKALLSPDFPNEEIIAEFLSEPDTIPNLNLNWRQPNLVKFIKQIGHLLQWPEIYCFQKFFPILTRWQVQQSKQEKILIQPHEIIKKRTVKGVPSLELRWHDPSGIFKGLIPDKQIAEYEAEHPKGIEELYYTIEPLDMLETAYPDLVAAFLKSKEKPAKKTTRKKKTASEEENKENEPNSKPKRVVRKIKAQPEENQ
Nature of the series: EMSA. (In general: Mobility shift assays separate free from complexed probe on a gel.)

B1: truncated DmGen (1-518 aa) with C-terminal hexahistidine tag (enzyme, Drosophila, UniProt Q9VRJ0 1-518, looked up)
chain: MGVKELWGVLTPHCERKPINELRGKKVAIDLAGWVCESLNVVDYFVHPRHHLKNLFFRTCYLIWEQVTPVFVLEGVAPKLKSQVIAKRNELQFRGVKPKNSPECTQSQPSKGDKGRSRFNHVLKQCETLLLSMGIQCVQGPGEAEAYCAFLNKHGLVDGVISQDSDCFAYGAVRVYRNFSVSTQGAQAAAGGAVDIYDMREITSRMDFGQQKIIVMALLCGCDYCPDGIGGIGKDGVLKLFNKYKETEILDRMRSWRGETDKYNALEIRVDDKSICSNCGHIGKTQSHTKSGCSVCRTHKGCDESLWKEQRLSIKSELTLRRKALLSPDFPNEEIIAEFLSEPDTIPNLNLNWRQPNLVKFIKQIGHLLQWPEIYCFQKFFPILTRWQVQQSKQEKILIQPHEIIKKRTVKGVPSLELRWHDPSGIFKGLIPDKQIAEYEAEHPKGIEELYYTIEPLDMLETAYPDLVAAFLKSKEKPAKKTTRKKKTASEEENKENEPNSKPKRVVRKIKAQPEENQ
As usually defined, the stoichiometry N is the number of molecules, sites or subunits per partner or assembly. As usually defined, the Kd is the concentration at which binding is half-saturated. A lower Kd goes with higher affinity. B1: the “stoichiometry N” value in “SEC-MALS” was found to be 2. In “atomic force microscopy”, this molecule came in with a Kd of approximately 100 nM.

B2: linear dsDNA (oligos 888/888rc) (dsDNA)
DNA 1: GACGCTGCCGAATTCTGGCGTTAGGAGATACCGATAAGCTTCGGCTTAA
DNA 2: TTAAGCCGAAGCTTATCGGTATCTCCTAACGCCAGAATTCGGCAGCGTC
B2: in the series with DmGen (1-518)-His, the binding result was “no binding”.
